Each block holds one molecule with its values, some of them ahead of it.
How the values were obtained:
[1] = biological target: EGF receptor (Homo sapiens) (UniProt P00533); settings: cited from earlier work
[2] = biological target: Ik2-MBPHis fusion protein (Drosophila); experiment: SPR; ProteOn XPR36, GLC chip; Ik2-MBPHis (1400 RU) and Sec13-MBP (5500 RU) amine-coupled; Spn-F injected at six concentrations 0.1625 to 5 μM; PBS pH 7.4, 0.005% Tween 20, 25°C; global fit to 1:1 Langmuir model

Molecule: EGF (from UniProt P01133)
Kd [1]: 410 nM

Kd [2]: 407 nM | koff [2]: 0.00169 s⁻¹ | kon [2]: 4150 M⁻¹ s⁻¹
B1: Spn-F, recombinant, MBP-His6 tag cleaved (natural protein)
chain: MEASAAKITPMASSMSASGSTNSPSSEKMNYALQVALQTIKERCIQLQRRVASMEEENQQLREASSRSEGAPRANEIGVTGDVLSLKAQVSELQRQKEQLEEHIGMVSNENRRLWSRLSQISKDQQLNALPSSTDSRAQQNQNLVRSKTFTQHSPNPHLRQKMLSDGIKDLSLEEIALDDFGASSEELGYPYNLQKVEETTSEPDANVDAKRCLDGLQELRREAMKQQQELRSVMTLLENRIALKPCPECAQKTIKKPEMADKSLETDDSLTSELKNYESQHNGHNGTPPSQRINIIQEKIKADAADAMEKTCPMCGKQYSSQVSFNAFREHVEMHFIDDALELESENSIERQFEFVSHAVGDF

Source: article PMC2567969
